Patent US20050049201A1, “Detection and removal of lead using lead-binding proteins” (priority 2001, published 2005)

Columns and labels:
[1] = lead binding; Quintanilla-Vega 1995, Smith 1998; read-out: dissociation constant (Kd) of high affinity lead-binding region; cited from earlier work
[2] = Solid phase assay for lead: protein on nitrocellulose with chromogenic dye; settings: combined results, various buffers, pH, salts and dyes
Experimental: A solid phase assay for the detection of lead was also developed using one or more synthetically produced lead-binding proteins. Both TB4 and ACBP and the various mutants that have been generated from them can be used in this assay. The experiment is performed by binding the protein to a solid surface support, such as nitrocellulose paper, cotton, glass microfibers, or polystyrene beads using, for example, methods described herein. Then the sample to be tested, such as saliva or blood, is placed onto the surface and allowed to react with the protein. After washing with buffer, or example a neutral non-chelating buffer to remove any unreacted material, the sample is treated with a ligand that can detect a lead-leading binding protein complex, for example, a ligand that can cause a color chance upon detecting a lead-protein complex. Examples of such ligands include, sodium sulfide and sodium rhodizonic acid. Furthermore, the concentration of the lead in the sample being tested may be determined by the intensity of the spot produced upon binding of the dye. […]
As a control, the assay was tested using solutions containing several different buffers, pH conditions, and salts for reaction with the sodium sulfide and sodium rhodizonic acid dyes used. […] The pH was determined empirically for rhodizonic acid over a range of pH 4 to pH 8. […]

B1: acyl-CoA binding protein (protein, listed as Homo sapiens)
chain: MSQAEFEKAAEEVRHLKTKPSDEEMLFIYGHYKQATVGDINTERPGMLDFTGKAKWDAWNELKGTSKEDAMKAYINKVEELKKKYGI
[1]
  Kd: ~1 nM
[2]
  performance of solid phase lead detection assay: works well under various conditions
